Measured values published in patent publication US20240255503A1 (UNIVERSITY OF NEWCASTLE UPON TYNE, published 2024).

Legend:
[1] = biological target: C3b:FH1-4 complex (chip-bound C3b with co-injected WT FH1-4)
[2] = biological target: T1, L1109V mutant C3b, immobilised on a CM5 sensor chip (human, UniProt P01024 23-667; P01024 749-1663); assay: SPR steady-state affinity, FH19-20 20-0.156 µM over thioester-coupled L1109V C3b (898 RU); fitted KD from the same SPR run on L1109V C3b that the text calls a lack of binding
T1 construct: C3 purified from the serum of a homozygous aHUS patient and converted to C3b on the chip (898 RU, thioester coupled); also called L1109V C3b; variant C3b

[3] = biological target: T2, Human C3b (wild type), immobilised on a CM5 sensor chip (human, UniProt P01024 23-667; P01024 749-1663); assay: SPR steady-state affinity, FH19-20 20-0.156 µM over thioester-coupled WT C3b (899 RU); WT C3b on the chip, not the L1109V mutant
T2 construct: also called WT C3b; WT C3

[4] = biological target: T1, L1109V mutant C3b, immobilised on a CM5 …; assay: SPR steady-state affinity, FH1-4 20-0.156 µM over thioester-coupled L1109V C3b (898 RU)
[5] = biological target: T2, Human C3b (wild type), immobilised on a …; assay: SPR steady-state affinity, FH1-4 20-0.156 µM over thioester-coupled WT C3b (899 RU)
[6] = biological target: T2, Human C3b (wild type), immobilised on a …; assay: SPR steady-state affinity fit (BIAevaluation S200), WT FH1-4 over C3b immobilised on a CM5 chip
Description: Data was collected at 40 Hz and there was a 120s stabilisation period between each sample being injected.

[7] = biological target: T2, Human C3b (wild type), immobilised on a …; assay: SPR steady-state affinity fit (BIAevaluation S200), WT FH1-4 over thiol-coupled WT C3b (899 RU) on a CM5 chip, PBST [Continued]
[8] = biological target: T2, Human C3b (wild type), immobilised on a …; assay: SPR affinity estimate (not steady state), FL-FH 250-7.8 nM over thioester-coupled WT C3b
Description: (§1) Dissociation constants (KD) are given under the graphs showing each concentration vs RU curve labelled with the appropriate variant.

[9] = biological target: T1, L1109V mutant C3b, immobilised on a CM5 …; assay: SPR affinity estimate, FL-FH over thioester-coupled mutant and WT C3b
Description: as §1

[10] = biological target: T1, L1109V mutant C3b, immobilised on a CM5 …; assay: SPR affinity fit (BIAevaluation), WT full length FH over thiol-coupled L1109V C3b (898 RU) on a CM5 chip, PBST; printed under both panels [Continued]
Description: as §1

[11] = biological target: T3, C3b:FH1-4 complex (chip-bound C3b with co-injected WT FH1-4) (human, UniProt P01024 23-667; P01024 749-1663; P08603 19-263); assay: SPR TMC building, 62.5 nM FI with 125 nM WT FH1-4 over amine-coupled C3b
T3 construct: Composite target for the FI variants in the trimolecular complex (TMC) building assay, made of m1 and m3; FI and FH1-4 were injected together over C3b; also called FH/C3b; FH-1-4/C3b
T3 sequence (P01024 23-667 limits assumed, chain 1 of 2): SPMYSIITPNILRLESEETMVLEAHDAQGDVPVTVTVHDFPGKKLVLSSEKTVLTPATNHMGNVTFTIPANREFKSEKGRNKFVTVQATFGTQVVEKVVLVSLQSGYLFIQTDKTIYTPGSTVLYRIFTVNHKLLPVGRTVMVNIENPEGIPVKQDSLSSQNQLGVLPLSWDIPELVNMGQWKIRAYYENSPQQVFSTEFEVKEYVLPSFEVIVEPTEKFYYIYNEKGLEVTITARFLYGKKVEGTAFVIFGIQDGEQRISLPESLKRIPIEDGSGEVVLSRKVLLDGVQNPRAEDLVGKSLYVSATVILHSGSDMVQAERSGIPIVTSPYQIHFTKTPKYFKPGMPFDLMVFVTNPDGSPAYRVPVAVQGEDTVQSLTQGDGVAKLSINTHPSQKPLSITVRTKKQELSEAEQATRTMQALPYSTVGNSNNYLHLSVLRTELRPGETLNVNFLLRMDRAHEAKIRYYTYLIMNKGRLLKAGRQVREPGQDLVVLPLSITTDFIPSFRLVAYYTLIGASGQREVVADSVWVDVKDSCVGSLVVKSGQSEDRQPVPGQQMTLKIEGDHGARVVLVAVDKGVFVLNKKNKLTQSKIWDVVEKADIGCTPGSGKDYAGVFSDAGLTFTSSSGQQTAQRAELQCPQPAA
T3 sequence (P01024 749-1663 limits assumed, chain 2 of 2): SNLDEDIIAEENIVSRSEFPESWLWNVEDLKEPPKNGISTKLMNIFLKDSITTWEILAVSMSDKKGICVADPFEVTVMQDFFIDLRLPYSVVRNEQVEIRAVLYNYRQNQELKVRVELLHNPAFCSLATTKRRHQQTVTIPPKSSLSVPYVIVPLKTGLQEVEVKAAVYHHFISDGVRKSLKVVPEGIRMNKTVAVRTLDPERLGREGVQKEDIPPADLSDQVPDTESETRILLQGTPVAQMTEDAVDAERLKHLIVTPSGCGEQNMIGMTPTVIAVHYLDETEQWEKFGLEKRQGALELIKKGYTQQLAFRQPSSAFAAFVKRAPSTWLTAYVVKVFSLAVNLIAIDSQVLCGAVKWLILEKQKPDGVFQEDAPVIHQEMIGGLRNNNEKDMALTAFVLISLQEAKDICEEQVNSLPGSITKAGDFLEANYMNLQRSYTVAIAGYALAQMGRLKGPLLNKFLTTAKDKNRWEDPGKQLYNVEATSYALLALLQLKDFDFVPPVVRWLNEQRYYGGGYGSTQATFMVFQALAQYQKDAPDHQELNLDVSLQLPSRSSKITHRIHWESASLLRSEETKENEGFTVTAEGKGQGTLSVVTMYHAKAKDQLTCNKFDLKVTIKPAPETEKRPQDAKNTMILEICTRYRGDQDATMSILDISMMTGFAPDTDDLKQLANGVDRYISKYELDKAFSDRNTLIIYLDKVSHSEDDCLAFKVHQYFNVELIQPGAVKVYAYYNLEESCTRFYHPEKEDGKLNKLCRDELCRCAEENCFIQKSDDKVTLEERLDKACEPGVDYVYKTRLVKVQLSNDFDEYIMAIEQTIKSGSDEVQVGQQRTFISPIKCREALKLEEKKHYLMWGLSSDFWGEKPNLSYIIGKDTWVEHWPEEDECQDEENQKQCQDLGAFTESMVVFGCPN

T2 sequence (P01024 23-667 limits assumed, chain 1 of 2): as the sequence (P01024 23-667 limits assumed, chain 1 of 2) above
T2 sequence (P01024 749-1663 limits assumed, chain 2 of 2): as the sequence (P01024 749-1663 limits assumed, chain 2 of 2) above
T1 sequence (P01024 23-667 limits assumed, chain 1 of 2): as the sequence (P01024 23-667 limits assumed, chain 1 of 2) above
T1 sequence (P01024 749-1663 L1109V limits assumed, chain 2 of 2): as the sequence (P01024 749-1663 limits assumed, chain 2 of 2) above, with L361V counted along it

B1: Complement Factor I, wild type (active) (protein)
chain 1: KVTYTSQEDLVEKKCLAKKYTHLSCDKVFCQPWQRCIEGTCVCKLPYQCPKNGTAVCATNRRSFPTYCQQKSLECLHPGTKFLNNGTCTAEGKFSVSLKHGNTDSEGIVEVKLVDQDKTMFICKSSWSMREANVACLDLGFQQGADTQRRFKLSDLSINSTECLHVHCRGLETSLAECTFTKRRTMGYQDFADVVCYTQKADSPMDDFFQCVNGKYISQMKACDGINDCGDQSDELCCKACQGKGFHCKSGVCIPSQYQCNGEVDCITGEDEVGCAGFASVAQEETEILTADMDAERRRIKSLLPKLSCGVKNRMHI
chain 2: IVGGKRAQLGDLPWQVAIKDASGITCGGIYIGGCWILTAAHCLRASKTHRYQIWTTVVDWIHPDLKRIVIEYVDRIIFHENYNAGTYQNDIALIEMKKDGNKKDCELPRSIPACVPWSPYLFQPNDTCIVSGWGREKDNERVFSLQWGEVKLISNCSKFYGNRFYEKEMECAGTYDGSIDACKGDSGGPLVCMDANNVTYVWGVVSWGENCGKPEFPGVYTKVANYFDWISYHVGRPFISQYNV
In the case of B1, the “cleavage of chip-bound C3b to iC3b (SPR, 25° C.)” value [1] is reported as “the chip was shown to be degraded almost instantaneously after formation of a small amount of TMC (˜3 RU) and conversion of C3b to iC3b”.

B2: Complement Factor H CCP domains 19-20 (WT FH CCP19-20) (other, human, UniProt P08603 1107-1231, looked up)
chain: GKCGPPPPIDNGDITSFPLSVYAPASSVEYQCQNLYQLEGNKRITCRNGQWSEPPKCLHPCVISREIMENYNIALRWTAKQKLYSRTGESVEFVCKRGYRLSSRSHTLRTTCWDGKLEYPTCAKR
notes: domain: CCP19-20; also called FH19-20
For B2, the Kd [2] was about 358 µM and the Kd [3] was 9.92 µM.

B3: Recombinant Human Complement Factor H CCPs 1-4 (6x His-tagged), wild type (other)
chain: EKREAEAAGEQKLISEEDLEDCNELPPRRNTEILTGSWSDQTYPEGTQAIYKCRPGYRSLGNVIMVCRKGEWVALNPLRKCQKRPCGHPGDTPFGTFTLTGGNVFEYGVKAVYTCNEGYQLLGEINYRECDTDGWTNDIPICEVVKCLPVTAPENGKIVSSAMEPDREYHFGQAVRFVCNSGYKIEGDEEMHCSDDGFWSKEKPKCVEISCKSPDVINGSPISQKIIYKENERFQYKCNMGYEYSERGDAVCTESGWRPLPSCEHHHHHH
notes: Produced in-house; also called FH1-4; WT FH1-4
With B3 the Kd [4] was 9.2 µM, the Kd [5] was 8.1 µM and the Kd [6] was 10.1 µM. The Kd [7] was 8.09 µM.

B4: Full Length Human Complement Factor H (FH) (other)
chain: EDCNELPPRRNTEILTGSWSDQTYPEGTQAIYKCRPGYRSLGNVIMVCRKGEWVALNPLRKCQKRPCGHPGDTPFGTFTLTGGNVFEYGVKAVYTCNEGYQLLGEINYRECDTDGWTNDIPICEVVKCLPVTAPENGKIVSSAMEPDREYHFGQAVRFVCNSGYKIEGDEEMHCSDDGFWSKEKPKCVEISCKSPDVINGSPISQKIIYKENERFQYKCNMGYEYSERGDAVCTESGWRPLPSCEEKSCDNPYIPNGDYSPLRIKHRTGDEITYQCRNGFYPATRGNTAKCTSTGWIPAPRCTLKPCDYPDIKHGGLYHENMRRPYFPVAVGKYYSYYCDEHFETPSGSYWDHIHCTQDGWSPAVPCLRKCYFPYLENGYNQNYGRKFVQGKSIDVACHPGYALPKAQTTVTCMENGWSPTPRCIRVKTCSKSSIDIENGFISESQYTYALKEKAKYQCKLGYVTADGETSGSITCGKDGWSAQPTCIKSCDIPVFMNARTKNDFTWFKLNDTLDYECHDGYESNTGSTTGSIVCGYNGWSDLPICYERECELPKIDVHLVPDRKKDQYKVGEVLKFSCKPGFTIVGPNSVQCYHFGLSPDLPICKEQVQSCGPPPELLNGNVKEKTKEEYGHSEVVEYYCNPRFLMKGPNKIQCVDGEWTTLPVCIVEESTCGDIPELEHGWAQLSSPPYYYGDSVEFNCSESFTMIGHRSITCIHGVWTQLPQCVAIDKLKKCKSSNLIILEEHLKNKKEFDHNSNIRYRCRGKEGWIHTVCINGRWDPEVNCSMAQIQLCPPPPQIPNSHNMTTTLNYRDGEKVSVLCQENYLIQEGEEITCKDGRWQSIPLCVEKIPCSQPPQIEHGTINSSRSSQESYAHGTKLSYTCEGGFRISEENETTCYMGKWSSPPQCEGLPCKSPPEISHGVVAHMSDSYQYGEEVTYKCFEGFGIDGPAIAKCLGEKWSHPPSCIKTDCLSLPSFENAIPMGEKKDVYKAGEQVTYTCATYYKMDGASNVTCINSRWTGRPTCRDTSCVNPPTVQNAYIVSRQMSKYPSGERVRYQCRSPYEMFGDEEVMCLNGNWTEPPQCKDSTGKCGPPPPIDNGDITSFPLSVYAPASSVEYQCQNLYQLEGNKRITCRNGQWSEPPKCLHPCVISREIMENYNIALRWTAKQKLYSRTGESVEFVCKRGYRLSSRSHTLRTTCWDGKLEYPTCAKR
notes: Bought (CompTech, A137); also called FL-FH; FLFH
B4 was tested, and the Kd [8] was 0.28 µM, the “fold change of KD, mutant C3b against WT C3b” value [9] was 3.6 fold and the Kd [10] was 1.01 µM.

B5: Inactive (S525A) Complement Factor I (protein)
chain: KVTYTSQEDLVEKKCLAKKYTHLSCDKVFCQPWQRCIEGTCVCKLPYQCPKNGTAVCATNRRSFPTYCQQKSLECLHPGTKFLNNGTCTAEGKFSVSLKHGNTDSEGIVEVKLVDQDKTMFICKSSWSMREANVACLDLGFQQGADTQRRFKLSDLSINSTECLHVHCRGLETSLAECTFTKRRTMGYQDFADVVCYTQKADSPMDDFFQCVNGKYISQMKACDGINDCGDQSDELCCKACQGKGFHCKSGVCIPSQYQCNGEVDCITGEDEVGCAGFASVTQEETEILTADMDAERRRIKSLLPKLSCGVKNRMHIRRKRIVGGKRAQLGDLPWQVAIKDASGITCGGIYIGGCWILTAAHCLRASKTHRYQIWTTVVDWIHPDLKRIVIEYVDRIIFHENYNAGTYQNDIALIEMKKDGNKKDCELPRSIPACVPWSPYLFQPNDTCIVSGWGREKDNERVFSLQWGEVKLISNCSKFYGNRFYEKEMECAGTYDGSIDACKGDAGGPLVCMDANNVTYVWGVVSWGENCGKPEFPGVYTKVANYFDWISYHVGRPFISQYNV
In the case of B5, the “cleavage of chip-bound C3b (SPR, convertase rebuilt before and after)” value [1] is reported as “Inactive (S525A) FI therefore demonstrated binding of the components of the AP regulatory TMC without cleaving the chip surface”.

B6: Complement Factor I with only an H380R mutation (protein)
chain: KVTYTSQEDLVEKKCLAKKYTHLSCDKVFCQPWQRCIEGTCVCKLPYQCPKNGTAVCATNRRSFPTYCQQKSLECLHPGTKFLNNGTCTAEGKFSVSLKHGNTDSEGIVEVKLVDQDKTMFICKSSWSMREANVACLDLGFQQGADTQRRFKLSDLSINSTECLHVHCRGLETSLAECTFTKRRTMGYQDFADVVCYTQKADSPMDDFFQCVNGKYISQMKACDGINDCGDQSDELCCKACQGKGFHCKSGVCIPSQYQCNGEVDCITGEDEVGCAGFASVTQEETEILTADMDAERRRIKSLLPKLSCGVKNRMHIRRKRIVGGKRAQLGDLPWQVAIKDASGITCGGIYIGGCWILTAARCLRASKTHRYQIWTTVVDWIHPDLKRIVIEYVDRIIFHENYNAGTYQNDIALIEMKKDGNKKDCELPRSIPACVPWSPYLFQPNDTCIVSGWGREKDNERVFSLQWGEVKLISNCSKFYGNRFYEKEMECAGTYDGSIDACKGDSGGPLVCMDANNVTYVWGVVSWGENCGKPEFPGVYTKVANYFDWISYHVGRPFISQYNV
With B6 the “cleavage of chip-bound C3b (SPR)” value [1] was “H380R FI appears to bind to WT FH1-4/C3b without cleaving the C3b coupled chip surface”.

B7: Y459S inactive (S525A) Complement Factor I (enzyme)
chain: KVTYTSQEDLVEKKCLAKKYTHLSCDKVFCQPWQRCIEGTCVCKLPYQCPKNGTAVCATNRRSFPTYCQQKSLECLHPGTKFLNNGTCTAEGKFSVSLKHGNTDSEGIVEVKLVDQDKTMFICKSSWSMREANVACLDLGFQQGADTQRRFKLSDLSINSTECLHVHCRGLETSLAECTFTKRRTMGYQDFADVVCYTQKADSPMDDFFQCVNGKYISQMKACDGINDCGDQSDELCCKACQGKGFHCKSGVCIPSQYQCNGEVDCITGEDEVGCAGFASVTQEETEILTADMDAERRRIKSLLPKLSCGVKNRMHIRRKRIVGGKRAQLGDLPWQVAIKDASGITCGGIYIGGCWILTAAHCLRASKTHRYQIWTTVVDWIHPDLKRIVIEYVDRIIFHENYNAGTYQNDIALIEMKKDGNKKDCELPRSIPACVPWSPSLFQPNDTCIVSGWGREKDNERVFSLQWGEVKLISNCSKFYGNRFYEKEMECAGTYDGSIDACKGDAGGPLVCMDANNVTYVWGVVSWGENCGKPEFPGVYTKVANYFDWISYHVGRPFISQYNV
notes: also called Y459S FI
With B7 the “increase in response (RU)” value [11] was about 2 RU.
